The record followed here is paper PMC101403.

As a reminder, the Km is the concentration of substrate that gives half-maximal velocity. As usually defined, the kcat is the number of substrate molecules converted per active site and unit of time at saturation. Usually kcat/Km stands for the turnover number divided by the Michaelis constant.

Common to all, as to assay: purified protein
What all share (conditions): Mg2+ ([…] MgCl2)

Substrate in series [1]: CC(=O)SCCNC(=O)CCNC(=O)[C@H](O)C(C)(C)COP(=O)(O)OP(=O)(O)OC[C@H]1O[C@@H](n2cnc3c(N)ncnc32)[C@H](O)[C@@H]1OP(=O)(O)O
Substrate in series [2]: CC(O)(CC(=O)O)CC(=O)SCCNC(=O)CCNC(=O)[C@H](O)C(C)(C)COP(=O)(O)OP(=O)(O)OC[C@H]1O[C@@H](n2cnc3c(N)ncnc32)[C@H](O)[C@@H]1OP(=O)(O)O
Substrate in series [3]: CC(C)(COP(=O)(O)OP(=O)(O)OC[C@H]1O[C@@H](n2cnc3c(N)ncnc32)[C@H](O)[C@@H]1OP(=O)(O)O)[C@@H](O)C(=O)NCCC(=O)NCCSC(=O)CCC(=O)O
Substrate in series [4]: CC(C)(COP(=O)(O)OP(=O)(O)OC[C@H]1O[C@@H](n2cnc3c(N)ncnc32)[C@H](O)[C@@H]1OP(=O)(O)O)[C@@H](O)C(=O)NCCC(=O)NCCS

B1: Y87G2A.14 Nudix hydrolase (coenzyme A diphosphatase) (Caenorhabditis elegans) (protein)
chain: MKCVVSRADDLKRMLDLSDVPTKSQGEQDAGVLILLHDDGSEKLKVLLCVRSRQLRRHPGEVCFPGGMMDDEDGQNVRRTAIREAYEEVGVNENDDYLVLGNLPAFRARFGVLIHPTVALLRRPPTFVLSIGEVESIFWIPLSQFLEDTHHSTFLIDEFYMVHVFQFDEYPTTYGVTALMCIVVAIGLLGKLPNFNLMGNLTISDMLDKHLDSIEIIRHVYEFASRKFEPKSKI
For the protein B1, the Km in series [1] came out at 230 µM; in series [2] it was 200 µM; in series [3] it was 240 µM; in series [4] it was 220 µM. Also, the kcat stood at 11.8 s⁻¹ in series [1], 10.5 s⁻¹ in series [2], 12.7 s⁻¹ in series [3] and 13.8 s⁻¹ in series [4]. For the same protein, the kcat/Km in series [1] is 51000 M⁻¹ s⁻¹; in series [2] it was 54000 M⁻¹ s⁻¹; in series [3] it was 53000 M⁻¹ s⁻¹; in series [4] it was 64000 M⁻¹ s⁻¹.
